One may read the KM as the substrate concentration at which the rate is half of its maximum.

Data set [1] addresses Control peptide #113: [4-Mu]…[DABCYL]-Hex.
In data set [2] the target is Control peptide #112: [5-Fam]…[DABCYL]-Hex.

B1: Proteinase K (protein)
chain: AAQTNAPWGLARISSTSPGTSTYYYDESAGQGSCVYVIDTGIEASHPEFEGRAQMVKTYYYSSRDGNGHGTHCAGTVGSRTYGVAKKTQLFGVKVLDDNGSGQYSTIIAGMDFVASDKNNRNCPKGVVASLSLGGGYSSSVNSAAARLQSSGVMVAVAAGNNNADARNYSPASEPSVCTVGASDRYDRRSSFSNYGSVLDIFGPGTSILSTWIGGSTRSISGTSMATPHVAGLAAYLMTLGKTTAASACRYIADTANKGDLSNIPFGTVNLLAYNNYQA
Take B1: the figures for the KM in data set [1] and in data set [2] were 4.87 µM and 3.37 µM, respectively.

B2: Thermolysin (protein)
chain: ITGTSTVGVGRGVLGDQKNINTTYSTYYYLQDNTRGNGIFTYDAKYRTTLPGSLWADADNQFFASYDAPAVDAHYYAGVTYDYYKNVHNRLSYDGNNAAIRSSVHYSQGYNNAFWNGSQMVYGDGDGQTFIPLSGGIDVVAHELTHAVTDYTAGLIYQNESGAINEAISDIFGTLVEFYANKNPDWEIGEDVYTPGISGDSLRSMSDPAKYGDPDHYSKRYTGTQDNGGVHINSGIINKAAYLISQGGTHYGVSVVGIGRDKLGKIFYRALTQYLTPTSNFSQLRAAAVQSATDLYGSTSQEVASVKQAFDAVGVK
Consider B2, for which the results for the KM in data set [1] and in data set [2] were 6.45 µM and 3.58 µM, respectively.

The values are drawn from US20210255174.
